Values quoted from earlier work in patent US5654276A, “Peptides and compounds that bind to the IL-5 receptor” (Affymax Technologies N.V., priority 1995, dated 1997).

Biological target: T1, human IL-5 receptor (Homo sapiens, UniProt Q01344)
T1 construct: host or cells: HL60 subclone induced towards eosinophil differentiation with sodium butyrate (endogenous receptor)
T1 sequence (Q01344 21-420): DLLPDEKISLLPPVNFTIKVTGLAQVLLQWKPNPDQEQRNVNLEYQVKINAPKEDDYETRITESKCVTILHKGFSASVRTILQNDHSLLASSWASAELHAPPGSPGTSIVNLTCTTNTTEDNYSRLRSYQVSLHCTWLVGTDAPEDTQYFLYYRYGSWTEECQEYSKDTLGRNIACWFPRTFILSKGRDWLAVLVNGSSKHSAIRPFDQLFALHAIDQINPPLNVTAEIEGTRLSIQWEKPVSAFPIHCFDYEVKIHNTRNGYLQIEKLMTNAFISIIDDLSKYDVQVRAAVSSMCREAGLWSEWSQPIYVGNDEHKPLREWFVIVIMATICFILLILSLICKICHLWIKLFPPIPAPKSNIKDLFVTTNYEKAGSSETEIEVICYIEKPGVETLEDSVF
T1 sequence (P32927 17-897 partner): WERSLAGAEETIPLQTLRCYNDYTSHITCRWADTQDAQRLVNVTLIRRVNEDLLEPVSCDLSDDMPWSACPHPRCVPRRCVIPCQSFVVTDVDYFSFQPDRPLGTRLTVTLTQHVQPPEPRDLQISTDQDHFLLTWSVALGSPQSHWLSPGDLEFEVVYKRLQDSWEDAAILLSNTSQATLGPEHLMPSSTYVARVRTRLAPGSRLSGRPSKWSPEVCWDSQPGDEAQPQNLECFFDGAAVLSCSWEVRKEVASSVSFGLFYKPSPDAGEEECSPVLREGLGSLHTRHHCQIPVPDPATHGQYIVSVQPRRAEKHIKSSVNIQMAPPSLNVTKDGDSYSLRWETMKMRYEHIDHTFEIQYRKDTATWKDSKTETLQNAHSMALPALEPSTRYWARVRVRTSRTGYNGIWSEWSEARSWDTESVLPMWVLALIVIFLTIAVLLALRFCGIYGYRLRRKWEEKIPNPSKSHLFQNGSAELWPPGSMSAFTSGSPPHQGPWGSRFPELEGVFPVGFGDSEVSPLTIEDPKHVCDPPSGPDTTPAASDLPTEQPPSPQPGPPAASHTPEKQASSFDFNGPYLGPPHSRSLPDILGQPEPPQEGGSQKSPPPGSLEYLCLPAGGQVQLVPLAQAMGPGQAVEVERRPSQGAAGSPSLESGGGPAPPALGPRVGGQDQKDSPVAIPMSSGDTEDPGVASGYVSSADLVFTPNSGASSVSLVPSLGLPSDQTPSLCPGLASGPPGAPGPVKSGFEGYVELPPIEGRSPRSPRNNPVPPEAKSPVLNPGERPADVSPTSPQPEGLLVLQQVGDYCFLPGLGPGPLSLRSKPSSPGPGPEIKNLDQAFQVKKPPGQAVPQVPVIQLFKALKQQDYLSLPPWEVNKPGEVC
Settings: HL60 subclone, eosinophilic differentiation initiated with sodium butyrate; read-out: Kd of IL-5 binding sites

Kd: 0.03 nM
Substance: IL-5: lymphokine secreted by T cells and mast cells having biological activities on B cells and eosinophils
